# Laboratory results as given in PMC2939893, “Mammalian Otolin: A Multimeric Glycoprotein Specific to the Inner Ear that Interacts with Otoconial Matrix Protein Otoconin-90 and Cerebellin-1” (PLoS ONE, 2010).
# B1: C-terminal FLAG-tagged Otolin (natural protein, mouse, UniProt Q4ZJM7 24-482, looked up)
# chain: KTTPYTKFTKKSEGKEMLKGLKPSSGFFLDGEETVHTETAAMAEPTTGSPALAMAESTAGPSASATTRLLPFESFSLDTTGFVLNCCHCCSFVTGQKGEPGKMGKQGPKGETGDTGSPGHPGTTGPQGPKGQKGEKGLKGDRGDQGAGGIPGYPGKPGEQGALGPKGDKGTIGPAGTKGQKGSKGELCGNGTKGEKGDPGASGAHGFIGEPGAKGEKGGVGEKGYRGDLGERGEKGQKGEKGMEGEKGSRGDVGSEGKRGSDGLPGLRGDSGPKGEKGEIGSPGFTGPAGPKGELGSKGVRGPTGKKGSRGVKGSKGEATQVPQSAFSALLSKPFPPPNVPIKFDKILSNDQGDYSPVTGKFNCSVPGTYIFSYHVTVRGRPARISLVARNRKQFKSRETLYGQQVDQASLLLILKLSAGDQVWLEVSKDWNGLYVGPEDDSIFSGFLLYPEETFSKSP
# modifications: hydroxyproline at Pro-141, 144, 174, 177, 180, 222, 234, 288 and 306; Lys-189 and Lys-315 hydroxylated and glycosylated with a glucosyl-galactosyl group (mass spectrometry of purified recombinant Otolin)
# notes: Otolin, mouse, GenBank DQ002405; entire coding region (482 amino acids, own signal peptide) cloned and expressed; the secreted protein was collected from the medium; also called otolin-FLAG; recombinant Otolin; source: HEK293T, transiently transfected; not shown: FLAG, C-terminal, kept
# Target: the molecule itself
# Assay: SEC; supernatant (500 µl) of transfected HEK293T cells with FLAG-tagged Otolin on Superdex 200 HR 10/30 in PBS; fractions immunoblotted with anti-FLAG M2
protein,measurement,value
B1,binding result,binds
